Laboratory results as given in patent CN113583125A (SUZHOU CENTERGENE PHARMACEUTICALS CO LTD, dated 2021).
Substitutions are numbered along the chain they refer to.

Legend:
[1] = target: T1, SEQ ID NO:1蛋白 (FSH、hCG、TSH、FSH-CTP和hLH共同α链) (Homo sapiens (Human), UniProt P01215 25-116); experiment: Phage ELISA screen, VHH displayed on phage
T1 construct: Immunogen for the alpaca and target of the Phage ELISA screen

hCG (人绒毛膜促性腺激素) = target: T2, hCG (人绒毛膜促性腺激素) (human, UniProt P0DN86 21-165); experiment: affinity chromatography, VHH coupled to CNBr-agarose, hCG from CHO supernatant, elution at pH 3, SDS-PAGE
T2 construct: In the resin experiments hCG comes from the supernatant of CHO cells that express it stably

hLH (人促黄体生成素) = hLH (人促黄体生成素) (human, UniProt P01229 21-141); experiment: affinity purification on VHH-agarose (CNBr), SDS-PAGE of the eluate
FSH (卵泡刺激素) [2] = target: T3, FSH (卵泡刺激素) (human, UniProt P01225 19-129); experiment: ELISA, plate coated with 10 ug/ml FSH, VHH from 1 mg/ml in 2-fold steps, detection with anti-6xHis-HRP
T3 construct: also called hFSH

FSH (卵泡刺激素) [3] = target: T3, FSH (卵泡刺激素); experiment: affinity purification on VHH-agarose (CNBr), SDS-PAGE of the eluate

T2 sequence (chain, as listed by the source, chain 1 of 2, other chains not shown): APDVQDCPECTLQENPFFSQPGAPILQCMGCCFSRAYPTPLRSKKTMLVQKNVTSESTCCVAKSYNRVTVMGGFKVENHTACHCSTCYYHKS
T1 sequence (P01215 25-116 limits assumed): as the sequence (chain, as listed by the source, chain 1 of 2, other chains not shown) above
Sequence of hLH (人促黄体生成素) (chain, as listed by the source, chain 1 of 2): as the sequence (chain, as listed by the source, chain 1 of 2, other chains not shown) above
Sequence of hLH (人促黄体生成素) (P01229 21-141, chain 2 of 2): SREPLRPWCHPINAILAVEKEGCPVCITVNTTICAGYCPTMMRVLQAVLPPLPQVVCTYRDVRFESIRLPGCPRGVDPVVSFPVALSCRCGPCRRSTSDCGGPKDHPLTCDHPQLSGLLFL
T3 sequence (chain, as listed by the source, chain 1 of 2): as the sequence (chain, as listed by the source, chain 1 of 2, other chains not shown) above
T3 sequence (P01225 19-129, chain 2 of 2): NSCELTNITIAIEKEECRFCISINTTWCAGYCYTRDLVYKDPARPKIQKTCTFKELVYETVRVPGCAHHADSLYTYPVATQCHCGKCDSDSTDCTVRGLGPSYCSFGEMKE

B1: SEQ ID NO:16蛋白 (VHH-sgs-HHHHHH) (VHH)
VHH: QVQVVESGGGLVQAGDSLRLSCAASGRTFSSYAMGWFRQAPGKEREAVAAITWSGGSTYYADSVKGRFTISRDNTKNTVYLQMNSLKPEDTAVYYCAARDRADGSSWWDYWGQGTQVTVSS
- binding result [1]: binds
- binding result (hCG (人绒毛膜促性腺激素)): binds

B2: SEQ ID NO:18蛋白 (VHH-sgs-HHHHHH) (VHH)
VHH: B1 VHH with V4L, A14T, D16G, K43E, D62A, K65Q, T75A
- binding result [1]: binds
- binding result (hCG (人绒毛膜促性腺激素)): binds

B3: SEQ ID NO:17蛋白 (VHH-sgs-HHHHHH) (VHH)
VHH: B1 VHH with V4L, A14T, D16G, K43E, I51L, T52S, D62A, K65Q, T75A
notes: In the resin experiments it is coupled to agarose
- binding result [1]: binds
- binding result (hLH (人促黄体生成素)): binds
- binding result (FSH (卵泡刺激素) [2]): binds

B4: 1G9E (SEQ ID NO:12, VHH-sgs-HHHHHH) (VHH)
VHH: QVQLQESGGGLVQAGGSLRLSCAASGRTGSTYDMGWFRQAPGKERESVAAINWDSARTYYASSVRGRFTISRDNAKKTVYLQMNSLKPEDTAVYTCGAGEGGTWDSWGQGTQVTVSS
- binding result (hCG (人绒毛膜促性腺激素)): binds

B5: SEQ ID NO:11蛋白 (1G9E突变体, VHH-sgs-HHHHHH) (VHH)
VHH: B4 VHH with Y59H
notes: Expressed in E. coli BL21 Star(DE3) and purified on nickel; In the resin experiments it is coupled to agarose
- binding result (FSH (卵泡刺激素) [3]): binds
- binding result (hLH (人促黄体生成素)): binds
